One assay addresses lysozyme. The assay is described as follows: non-specific binding ELISA, lysozyme immobilized. Background: An ELISA detects its analyte on a solid surface through an enzyme-linked reagent.
Assay [1] deals with human Claudin 18.2 (human) (UniProt P56856). Kind of assay: flow cytometry, antibody dilution series on hCLDN18.2-expressing MiaPaCa-2 cells. In general terms: Flow cytometry measures light scatter and fluorescence of single cells or particles in a stream.

One may read the EC50 as the concentration that produces a half-maximal response. For claudiximab (antibody), the normalized signal (fluorescence intensity normalized to trastuzumab) with lysozyme is 0.9. In addition, the EC50 in assay [1] was determined as 8.63 nM.
